From IntAct's records for PubMed 20974926

B1: Peptide chain release factor subunit 1 (Aeropyrum pernix (strain ATCC 700893 / DSM 11879 / JCM 9820 / NBRC 100138 / K1)), Q9YAF1 (parent)
chain: MSQGRLEERLTISKRELARLLKELKKWSAPATVLLSLYIPPGRPLSDVMTLLRQEYSITDNIKLKRTRQAVKRALSAAMDRLQMLTSTPPNGLVLFCGEDMSTGKFECFMFSPPEPIRVFYYRTDKRFITDFLEDMVEDNNAIGIIIVERDQATIGLLKGARLEVLKELEGFVPGKHKMGGQSQRRYERIIEQMVDEFFKKVGEEASNLLVPLAEKGVLKGVIVAGPGLAKQEFVEGNYLDYRLKKILAPELVDVAYQGLQGLKEAVMKAEKVVEAQMYRDAVNAMEEFKLHLAKGTGMIVYGEKDVEAALEMGAVKTLLIHESREDLEEWVEKAKSSGAQVIVVPESLAEAEWFLKTFGGLAGILRFRISTV
partner: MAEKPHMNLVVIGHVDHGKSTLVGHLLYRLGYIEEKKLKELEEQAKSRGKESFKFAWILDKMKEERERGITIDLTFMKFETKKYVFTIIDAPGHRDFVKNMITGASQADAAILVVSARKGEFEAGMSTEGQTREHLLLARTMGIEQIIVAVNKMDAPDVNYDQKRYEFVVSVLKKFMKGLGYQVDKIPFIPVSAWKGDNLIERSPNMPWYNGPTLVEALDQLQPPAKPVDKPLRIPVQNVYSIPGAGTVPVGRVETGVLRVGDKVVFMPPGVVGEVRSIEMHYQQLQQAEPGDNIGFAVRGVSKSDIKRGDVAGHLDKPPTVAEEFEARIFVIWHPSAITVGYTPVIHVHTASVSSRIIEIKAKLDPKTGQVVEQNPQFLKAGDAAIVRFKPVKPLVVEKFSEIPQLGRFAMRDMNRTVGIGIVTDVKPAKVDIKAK
B2: Eukaryotic peptide chain release factor subunit 1 (Schizosaccharomyces pombe (strain ATCC 38366 / 972)), P79063 (parent)
chain: MSETAEKAIEIWKIRRLVKQLINCHGNGTSMITLIIPPGEQISRYSNMLAEEYGTASNIKSRVNRLSVLSAITSTRERLKLYNKVPDNGLVIYCGEVIMEGNKTRKLNIDFEPFKPINTSQYLCDNKFHTEALAELLESDQRFGFIVMDGHQTLYGVVSGSAREVLQRFTVDLPKKHGRGGQSALRFARLRDEKRHNYVRKVAEGAVQHFITDDKPNVAGIVLAGSADFKTELGQSDLFDQRLQSRIIKTVDVSYGGDAGFNQAIELAADTLSNVKYVQEKKLIQRFFDEISLDSGKYCFGVVDTMNALQEGAVETLLCFADLDMIRYEFKNSEGNPVITYMTKEQEEKDSTNSFLLDKDTGAEMELVSSMLLSEWLAEHYKDYGANLEFVSDRSQEGMQFVKGFGGIGAVMRYQLDLSMLDPESDEFYSDSD
partner: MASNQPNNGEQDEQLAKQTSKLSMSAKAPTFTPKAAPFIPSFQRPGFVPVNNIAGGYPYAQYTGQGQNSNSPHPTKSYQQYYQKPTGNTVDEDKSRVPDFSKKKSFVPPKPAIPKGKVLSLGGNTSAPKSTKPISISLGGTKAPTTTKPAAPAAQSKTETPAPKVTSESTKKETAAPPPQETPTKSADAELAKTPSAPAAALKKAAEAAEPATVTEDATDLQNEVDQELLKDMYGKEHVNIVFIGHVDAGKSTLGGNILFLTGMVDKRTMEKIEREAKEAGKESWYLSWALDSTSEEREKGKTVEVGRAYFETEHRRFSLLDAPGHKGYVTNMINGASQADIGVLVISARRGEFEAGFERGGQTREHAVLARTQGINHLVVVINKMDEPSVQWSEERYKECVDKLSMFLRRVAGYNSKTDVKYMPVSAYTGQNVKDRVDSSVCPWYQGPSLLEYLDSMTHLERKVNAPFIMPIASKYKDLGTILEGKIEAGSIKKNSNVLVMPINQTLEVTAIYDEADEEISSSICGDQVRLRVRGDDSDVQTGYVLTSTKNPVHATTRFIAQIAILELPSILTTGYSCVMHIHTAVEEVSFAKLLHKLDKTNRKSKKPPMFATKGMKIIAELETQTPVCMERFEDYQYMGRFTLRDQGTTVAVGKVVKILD
B3: Eukaryotic peptide chain release factor GTP-binding subunit (Schizosaccharomyces pombe (strain ATCC 38366 / 972)), O74718 (parent)
chain: B2 partner
partner: B2 chain

Variants of: B1
Settings: with ef1a_aerpe tuf

Variant | effect of a mutation on the interaction
MSQGRLEERLTISKRELARLLKELKKWSAPATVLLSLYIPPGRPLSDVMTLLRQEYSITDNIKLKRTRQAVKRALSAAMDRLQMLTSTPPNGLVLFCGEDMSTGKFECFMFSPPEPIRVFYYRTDKRFITDFLEDMVEDNNAIGIIIVERDQATIGLLKGARLEVLKALEGFVPGKHKMGGQSQRRYERIIEQMVDEFFKKVGEEASNLLVPLAEKGVLKGVIVAGPGLAKQEFVEGNYLDYRLKKILAPELVDVAYQGLQGLKEAVMKAEKVVEAQMYRDAVNAMEEFKLHLAKGTGMIVYGEKDVEAALEMGAVKTLLIHESREDLEEWVEKAKSSGAQVIVVPESLAEAEWFLKTFGGLAGILRFRISTV [E168A] | decreasing interaction
MSQGRLEERLTISKRELARLLKELKKWSAPATVLLSLYIPPGRPLSDVMTLLRQEYSITDNIKLKRTRQAVKRALSAAMDRLQMLTSTPPNGLVLFCGEDMSTGKFECFMFSPPEPIRVFYYRTDKRFITDFLEDMVEDNNAIGIIIVERDQATIGLLKGARLEVLKELEGFVPGKHKMGGQSQRRYERIIEQMVDEFFKKVGEEASNLLVPLAEKGVLKGVIVAGPALAKQEFVEGNYLDYRLKKILAPELVDVAYQGLQGLKEAVMKAEKVVEAQMYRDAVNAMEEFKLHLAKGTGMIVYGEKDVEAALEMGAVKTLLIHESREDLEEWVEKAKSSGAQVIVVPESLAEAEWFLKTFGGLAGILRFRISTV [G228A] | disrupting interaction
MSQGRLEERLTISKRELARLLKELKKWSAPATVLLSLYIPPGRPLSDVMTLLRQEYSITDNIKLKRTRQAVKRALSAAMDRLQMLTSTPPNGLVLFCGEDMSTGKFECFMFSPPEPIRVFYYRTDKRFITDFLEDMVEDNNAIGIIIVERDQATIGLLKGARLEVLKELEGFVPGKHKMGGQSQRRYERIIEQMVDEFFKKVGEEASNLLVPLAEKGVLKGVIVAGPGLAKQEFVEGNYLDYRLKKILAPELVDVAYQGLQGLKEAVMKAEKVVEAQMYRDAVNAMEEFALHLAKGTGMIVYGEKDVEAALEMGAVKTLLIHESREDLEEWVEKAKSSGAQVIVVPESLAEAEWFLKTFGGLAGILRFRISTV [K290A] | disrupting interaction

The next lines start with the values.

effect of a mutation on the interaction | Variant
disrupting interaction | MSQGRLEERLTISKRELARLLKELKKWSAPATVLLSLYIPPGRPLSDVMTLLRQEYSITDNIKLKRTRQAVKRALSAAMDRLQMLTSTPPNGLVLFCGEDMSTGKFECFMFSPPEPIRVFYYRTDKRFITDFLEDMVEDNNAIGIIIVERDQATIGLLKGARLEVLKELEGFVPGKHKMGGQSQRRYERIIEQMVDEFFKKVGEEASNLLVPLAEKGVLKGVIVAGPGLAKQEFVEGNYLDYRLKKILAPELVDVAYQGLQGLKEAVMKAEKVVEAQMYRDAVNAMEEFKLHAAKGTGMIVYGEKDVEAALEMGAVKTLLIHESREDLEEWVEKAKSSGAQVIVVPESLAEAEWFLKTFGGLAGILRFRISTV [L293A]
disrupting interaction | MSQGRLEERLTISKRELARLLKELKKWSAPATVLLSLYIPPGRPLSDVMTLLRQEYSITDNIKLKRTRQAVKRALSAAMDRLQMLTSTPPNGLVLFCGEDMSTGKFECFMFSPPEPIRVFYYRTDKRFITDFLEDMVEDNNAIGIIIVERDQATIGLLKGARLEVLKELEGFVPGKHKMGGQSQRRYERIIEQMVDEFFKKVGEEASNLLVPLAEKGVLKGVIVAGPGLAKQEFVEGNYLDYRLKKILAPELVDVAYQGLQGLKEAVMKAEKVVEAQMYRDAVNAMEEFKLHLAKGTGMIVYGEKDVEAALEMGAVKTLLIHESREDLEEWVEKAKSSGAQVIVVPESLAEAEAFLKTFGGLAGILRFRISTV [W354A]
disrupting interaction | MSQGRLEERLTISKRELARLLKELKKWSAPATVLLSLYIPPGRPLSDVMTLLRQEYSITDNIKLKRTRQAVKRALSAAMDRLQMLTSTPPNGLVLFCGEDMSTGKFECFMFSPPEPIRVFYYRTDKRFITDFLEDMVEDNNAIGIIIVERDQATIGLLKGARLEVLKELEGFVPGKHKMGGQSQRRYERIIEQMVDEFFKKVGEEASNLLVPLAEKGVLKGVIVAGPGLAKQEFVEGNYLDYRLKKILAPELVDVAYQGLQGLKEAVMKAEKVVEAQMYRDAVNAMEEFKLHLAKGTGMIVYGEKDVEAALEMGAVKTLLIHESREDLEEWVEKAKSSGAQVIVVPESLAEAEWFLKTAGGLAGILRFRISTV [F359A]

Variants of: B2
Settings: with erf3_schpo sup35, O74718

Variant | effect of a mutation on the interaction
MSETAEKAIEIWKIRRLVKQLINCHGNGTSMITLIIPPGEQISRYSNMLAEEYGTASNIKSRVNRLSVLSAITSTRERLKLYNKVPDNGLVIYCGEVIMEGNKTRKLNIDFEPFKPINTSQYLCDNKFHTEALAELLESDQRFGFIVMDGHQTLYGVVSGSAREVLQRFTVDAPKKHGRGGQSALRFARLRDEKRHNYVRKVAEGAVQHFITDDKPNVAGIVLAGSADFKTELGQSDLFDQRLQSRIIKTVDVSYGGDAGFNQAIELAADTLSNVKYVQEKKLIQRFFDEISLDSGKYCFGVVDTMNALQEGAVETLLCFADLDMIRYEFKNSEGNPVITYMTKEQEEKDSTNSFLLDKDTGAEMELVSSMLLSEWLAEHYKDYGANLEFVSDRSQEGMQFVKGFGGIGAVMRYQLDLSMLDPESDEFYSDSD [L173A] | decreasing interaction
MSETAEKAIEIWKIRRLVKQLINCHGNGTSMITLIIPPGEQISRYSNMLAEEYGTASNIKSRVNRLSVLSAITSTRERLKLYNKVPDNGLVIYCGEVIMEGNKTRKLNIDFEPFKPINTSQYLCDNKFHTEALAELLESDQRFGFIVMDGHQTLYGVVSGSAREVLQRFTVDLPKAHGRGGQSALRFARLRDEKRHNYVRKVAEGAVQHFITDDKPNVAGIVLAGSADFKTELGQSDLFDQRLQSRIIKTVDVSYGGDAGFNQAIELAADTLSNVKYVQEKKLIQRFFDEISLDSGKYCFGVVDTMNALQEGAVETLLCFADLDMIRYEFKNSEGNPVITYMTKEQEEKDSTNSFLLDKDTGAEMELVSSMLLSEWLAEHYKDYGANLEFVSDRSQEGMQFVKGFGGIGAVMRYQLDLSMLDPESDEFYSDSD [K176A] | decreasing interaction

Variants of: B3
Settings: with erf1_schpo sup45, P79063

Variant | effect of a mutation on the interaction
T294A | decreasing interaction
